Measured values taken from paper PMC10786891, “Massively parallel profiling of RNA-targeting CRISPR-Cas13d”.
Positions count from the first letter of the chain named. Names may count otherwise.

Target: T1, EsCas13d, nuclease-dead (Eubacterium siraeum, UniProt B0MS50, R295A;H300A;R849A;H854A)
T1 sequence: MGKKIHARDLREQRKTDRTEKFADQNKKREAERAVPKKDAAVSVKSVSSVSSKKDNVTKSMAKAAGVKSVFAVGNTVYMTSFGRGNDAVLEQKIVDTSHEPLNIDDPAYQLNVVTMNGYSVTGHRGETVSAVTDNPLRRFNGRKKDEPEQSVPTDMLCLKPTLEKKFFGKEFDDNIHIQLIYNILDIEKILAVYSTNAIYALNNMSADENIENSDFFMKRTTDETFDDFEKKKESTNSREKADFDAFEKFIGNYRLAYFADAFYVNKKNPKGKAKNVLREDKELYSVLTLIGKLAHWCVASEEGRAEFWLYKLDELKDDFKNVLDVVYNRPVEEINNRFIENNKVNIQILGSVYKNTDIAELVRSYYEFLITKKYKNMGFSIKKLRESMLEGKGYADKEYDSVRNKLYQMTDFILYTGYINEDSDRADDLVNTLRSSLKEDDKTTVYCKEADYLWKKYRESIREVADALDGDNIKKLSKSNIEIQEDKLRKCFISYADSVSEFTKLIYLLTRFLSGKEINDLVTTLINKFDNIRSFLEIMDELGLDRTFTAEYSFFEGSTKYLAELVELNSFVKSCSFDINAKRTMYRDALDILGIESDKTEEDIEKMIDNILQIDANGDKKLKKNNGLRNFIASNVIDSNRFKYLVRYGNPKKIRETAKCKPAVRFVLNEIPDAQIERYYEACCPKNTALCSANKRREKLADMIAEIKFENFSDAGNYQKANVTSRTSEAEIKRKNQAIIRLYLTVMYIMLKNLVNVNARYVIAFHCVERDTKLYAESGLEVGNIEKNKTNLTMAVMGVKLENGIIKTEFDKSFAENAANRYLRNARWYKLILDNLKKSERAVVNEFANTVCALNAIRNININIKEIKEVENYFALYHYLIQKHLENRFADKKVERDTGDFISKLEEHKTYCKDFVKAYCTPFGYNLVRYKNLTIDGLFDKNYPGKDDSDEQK
Assay: crRNA (strand 1, pre-loaded); Mg2+; 40 mM Tris-HCl pH 7.5, 150 mM NaCl, 6 mM MgCl2, 1 mM DTT, 0.1% Tween-20, 0.2 mg/ml BSA; 25 C; 10 min per concentration, then washed
Settings: tags: His6-TwinStrep-SUMO cleaved; N-terminal SNAP kept (SNAP-Surface 488); label: 3' end held by stalled T7 RNA polymerase

B1: target 3 C1U,G3C (mixed)
RNA 1: CACCCGUGCAAAAUUGCAGGGGUCUAAAACGACCUGAAUAUUUCAGAUCAAA
RNA 2: GGGAAUGGAUCCACAUCUACGAAUUCGUUUUUGAUCUGAAAUAUUCAGCUUUGCAGAUCGGAAGAGCACACGU
- Kd: 49.5 ± 15.5 nM

B2: target 3 insU 3' of 18,insC 3' of 11 (mixed)
RNA 1: B1 RNA 1
RNA 2: GGGAAUGGAUCCACAUCUACGAAUUCGUUUUUGAUUCUGAAACUAUUCAGGUCUGCAGAUCGGAAGAGCACACGU
- Kd: 49 ± 9 nM

B3: target 3 C1G,A18G (mixed)
RNA 1: B1 RNA 1
RNA 2: B1 RNA 2 with A34G, C49G, U51G
- Kd: 18.6 ± 2.6 nM

B4: target 3 insG 3' of 5,insG 3' of 1 (mixed)
RNA 1: B1 RNA 1
RNA 2: GGGAAUGGAUCCACAUCUACGAAUUCGUUUUUGAUCUGAAAUAUUCAGGGUCGUGCAGAUCGGAAGAGCACACGU
- Kd: 37 ± 9.5 nM

B5: target 3 insC 3' of 7,insU 3' of 5 (mixed)
RNA 1: B1 RNA 1
RNA 2: B4 RNA 2 with A47C, G48A, G49U, U51G, C52U, G53C
- Kd: 57 ± 7.5 nM

B6: target 3 insG 3' of 7,insU 3' of 6 (mixed)
RNA 1: B1 RNA 1
RNA 2: B4 RNA 2 with C46G, A47C, G48U, G49A, U51G, C52U, G53C
- Kd: 20.1 ± 1.9 nM

B7: target 3 insA 3' of 6,insU 3' of 3 (mixed)
RNA 1: B1 RNA 1
RNA 2: B4 RNA 2 with G48A, C52U, G53C
- Kd: 5.25 ± 0.5 nM

B8: target 3 insC 3' of 21,insG 3' of 5 (mixed)
RNA 1: B1 RNA 1
RNA 2: GGGAAUGGAUCCACAUCUACGAAUUCGUUUUCUGAUCUGAAAUAUUCAGGGUCUGCAGAUCGGAAGAGCACACGU
- Kd: 81 ± 15.5 nM

B9: target 3 C1G,U10A (mixed)
RNA 1: B1 RNA 1
RNA 2: B1 RNA 2 with U42A, C49G, U51G
- Kd: 43 ± 14 nM

B10: target 3 insA 3' of 7,insC 3' of 4 (mixed)
RNA 1: B1 RNA 1
RNA 2: B4 RNA 2 with C46A, A47C, G48A, G50C, U51G, C52U, G53C
- Kd: 48.5 ± 8 nM

B11: target 3 G3C,U21A (mixed)
RNA 1: B1 RNA 1
RNA 2: B1 RNA 2 with U31A, U51C
- Kd: 72.5 ± 13.5 nM

B12: target 3 insC 3' of 5,insA 3' of 1 (mixed)
RNA 1: B1 RNA 1
RNA 2: B4 RNA 2 with G48C, G53A
- Kd: 23.1 ± 4.05 nM

B13: target 3 C6G,U7G (mixed)
RNA 1: B1 RNA 1
RNA 2: B1 RNA 2 with U45G, C46G, C49G, U51C
- Kd: 46.5 ± 4.5 nM

B14: target 3 insC 3' of 13,insG 3' of 2 (mixed)
RNA 1: B1 RNA 1
RNA 2: B4 RNA 2 with A40C, U42A, A43U, U44A, C46U, A47C, G48A, C52G, G53C
- Kd: 50 ± 11 nM

B15: target 3 insA 3' of 8,insA 3' of 3 (mixed)
RNA 1: B1 RNA 1
RNA 2: B4 RNA 2 with U45A, C46U, A47C, G48A, U51A, C52U, G53C
- Kd: 73 ± 18.5 nM

B16: target 3 insA 3' of 4,insU 3' of 4 (mixed)
RNA 1: B1 RNA 1
RNA 2: B4 RNA 2 with G49A, G50U, U51G, C52U, G53C
- Kd: 44 ± 16 nM

B17: target 3 insU 3' of 9,insG 3' of 9 (mixed)
RNA 1: B1 RNA 1
RNA 2: B2 RNA 2 with U36C, C37U, U38G, G39A, A42U, C43A, A45G
- Kd: 89.5 ± 24.5 nM

B18: target 3 insA 3' of 6,insC 3' of 3 (mixed)
RNA 1: B1 RNA 1
RNA 2: B4 RNA 2 with G48A, U51C, C52U, G53C
- Kd: 7.7 ± 0.6 nM

B19: target 3 insU 3' of 11,insA 3' of 2 (mixed)
RNA 1: B1 RNA 1
RNA 2: B4 RNA 2 with A43U, U44A, C46U, A47C, G48A, C52A, G53C
- Kd: 56.5 ± 8.5 nM

B20: target 3 A9G,U22A (mixed)
RNA 1: B1 RNA 1
RNA 2: B1 RNA 2 with U30A, A43G, C49G, U51C
- Kd: 27.6 ± 3.15 nM

B21: target 3 C1A (mixed)
RNA 1: B1 RNA 1
RNA 2: B1 RNA 2 with C49G, U51A
- Kd: 20 ± 2.55 nM

B22: target 3 insC 3' of 9,insG 3' of 7 (mixed)
RNA 1: B1 RNA 1
RNA 2: B4 RNA 2 with U44C, C46U, A47G, G48C, G49A, U51G, C52U, G53C
- Kd: 88 ± 21 nM

B23: target 3 U2C,C6A (mixed)
RNA 1: B1 RNA 1
RNA 2: B1 RNA 2 with C46A, C49G, U50C, U51C
- Kd: 39 ± 7 nM

B24: target 3 U2G,U7G (mixed)
RNA 1: B1 RNA 1
RNA 2: B1 RNA 2 with U45G, C49G, U50G, U51C
- Kd: 20.9 ± 2.45 nM

B25: target 3 C1A,U2A (mixed)
RNA 1: B1 RNA 1
RNA 2: B1 RNA 2 with C49G, U50A, U51A
- Kd: 49 ± 6.5 nM

B26: target 3 insA 3' of 22 (mixed)
RNA 1: B1 RNA 1
RNA 2: GGGAAUGGAUCCACAUCUACGAAUUCGUUUAUUGAUCUGAAAUAUUCAGGUCUGCAGAUCGGAAGAGCACACGU
- Kd: 20.6 ± 3.4 nM

B27: target 3 C1G,U2A (mixed)
RNA 1: B1 RNA 1
RNA 2: B1 RNA 2 with C49G, U50A, U51G
- Kd: 4.6 ± 0.7 nM

B28: target 3 insA 3' of 20,insC 3' of 20 (mixed)
RNA 1: B1 RNA 1
RNA 2: B2 RNA 2 with G33A, A34C, U35G, U36A, C37U, U38C, G39U, A40G, C43A
- Kd: ~110 nM

B29: target 1 insC 3' of 12,insU 3' of 4 (mixed)
RNA 1: CACCCGUGCAAAAAUGCAGGGGUCUAAAACUGAGCGGAUAACCUCUCUAUGG
RNA 2: GGGAAUGGAUCCACAUCUACGAAUUCGUACCAUAGAGAGGCUUAUCCGCUUCACCGAGAUCGGAAGAGCACACGU
- Kd: 7.5 ± 0.8 nM

B30: target 1 insA 3' of 17,insG 3' of 3 (mixed)
RNA 1: B29 RNA 1
RNA 2: B29 RNA 2 with G37A, A38G, G39A, C41G, U51G
- Kd: 10.9 ± 0.6 nM

B31: target 1 insA 3' of 22,insA 3' of 6 (mixed)
RNA 1: B29 RNA 1
RNA 2: GGGAAUGGAUCCACAUCUACGAAUUCGUACACAUAGAGAGGUUAUCCAGCUCACCGAGAUCGGAAGAGCACACGU
- Kd: 22.2 ± 1.3 nM
